Experimental data taken from US20230365714A1 (published 2023).

T1: cynomolgus monkey (Macaca fascicularis) ROR2, full length, on CHO cells (cynomolgus monkey (Macaca fascicularis), UniProt Q01974 34-943 (human entry))
T1 construct: also called ROR2mf; CHO-mfROR2
T1 chain: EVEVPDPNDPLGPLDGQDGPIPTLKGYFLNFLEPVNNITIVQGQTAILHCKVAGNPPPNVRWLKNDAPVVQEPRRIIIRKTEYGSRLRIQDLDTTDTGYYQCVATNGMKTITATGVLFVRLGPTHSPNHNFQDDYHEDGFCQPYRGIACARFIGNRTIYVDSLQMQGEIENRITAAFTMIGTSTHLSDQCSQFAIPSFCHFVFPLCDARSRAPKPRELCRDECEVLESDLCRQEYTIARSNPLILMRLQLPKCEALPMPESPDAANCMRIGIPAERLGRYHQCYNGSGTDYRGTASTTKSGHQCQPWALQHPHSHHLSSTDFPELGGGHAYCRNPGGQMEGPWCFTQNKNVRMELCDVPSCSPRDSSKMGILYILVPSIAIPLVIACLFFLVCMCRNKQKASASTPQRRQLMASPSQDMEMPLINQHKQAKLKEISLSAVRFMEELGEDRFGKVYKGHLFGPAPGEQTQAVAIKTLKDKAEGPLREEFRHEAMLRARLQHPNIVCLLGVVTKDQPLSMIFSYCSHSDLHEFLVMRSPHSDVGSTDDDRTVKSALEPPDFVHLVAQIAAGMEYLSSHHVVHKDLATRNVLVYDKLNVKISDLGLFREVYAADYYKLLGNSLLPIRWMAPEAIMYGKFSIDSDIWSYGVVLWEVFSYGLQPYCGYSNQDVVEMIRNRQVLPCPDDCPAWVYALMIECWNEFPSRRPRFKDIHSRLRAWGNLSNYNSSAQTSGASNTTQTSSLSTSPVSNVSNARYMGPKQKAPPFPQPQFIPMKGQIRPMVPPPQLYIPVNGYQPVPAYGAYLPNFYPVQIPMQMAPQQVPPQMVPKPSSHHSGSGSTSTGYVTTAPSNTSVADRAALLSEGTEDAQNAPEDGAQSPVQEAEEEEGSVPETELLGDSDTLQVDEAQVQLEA

B1: chIgG1-ROR2-A-FEAR (antibody, V domains shown)
VH: QSVEESGGRLVTPGTPLTLTCTVSGFSLSSYSMSWVRQAPGKGLEWIGVIYVNSKTWYANWAKGRFTISKTSTTVDLKITSPTTEDTATYFCARGDAGYTTNSWLWGPGTLVTVSS
VL: AFELTQTPASVSEPVGGTVTIKCQASESIDNYCSWYQQKPGQPPKLLIYQAFKLASGVPSRFRGSGSGTQFTLTISDLESDDAATYYCQSYSGISTTAFGGGTEVVVKR
notes: Full-length IgG1 with L234F, L235E, D265A, K409R; also called chIgG1-ROR2-A (with the Fc mutations FEAR)
B2: bsIgG1-huCD3-FEAL×chROR2-A-FEAR (bispecific antibody)
heavy 1: not shown
light 1: not shown
heavy 2: QSVEESGGRLVTPGTPLTLTCTVSGFSLSSYSMSWVRQAPGKGLEWIGVIYVNSKTWYANWAKGRFTISKTSTTVDLKITSPTTEDTATYFCARGDAGYTTNSWLWGPGTLVTVSSASTKGPSVFPLAPSSKSTSGGTAALGCLVKDYFPEPVTVSWNSGALTSGVHTFPAVLQSSGLYSLSSVVTVPSSSLGTQTYICNVNHKPSNTKVDKRVEPKSCDKTHTCPPCPAPEFEGGPSVFLFPPKPKDTLMISRTPEVTCVVVAVSHEDPEVKFNWYVDGVEVHNAKTKPREEQYNSTYRVVSVLTVLHQDWLNGKEYKCKVSNKALPAPIEKTISKAKGQPREPQVYTLPPSREEMTKNQVSLTCLVKGFYPSDIAVEWESNGQPENNYKTTPPVLDSDGSFFLYSRLTVDKSRWQQGNVFSCSVMHEALHNHYTQKSLSLSPGK
light 2: AFELTQTPASVSEPVGGTVTIKCQASESIDNYCSWYQQKPGQPPKLLIYQAFKLASGVPSRFRGSGSGTQFTLTISDLESDDAATYYCQSYSGISTTAFGGGTEVVVKRTVAAPSVFIFPPSDEQLKSGTASVVCLLNNFYPREAKVQWKVDNALQSGNSQESVTEQDSKDSTYSLSSTLTLSKADYEKHKVYACEVTHQGLSSPVTKSFNRGEC
B3: bsIgG1-huCD3-H101G-FEAL×b12-FEAR (bispecific antibody)
heavy 1: not shown
light: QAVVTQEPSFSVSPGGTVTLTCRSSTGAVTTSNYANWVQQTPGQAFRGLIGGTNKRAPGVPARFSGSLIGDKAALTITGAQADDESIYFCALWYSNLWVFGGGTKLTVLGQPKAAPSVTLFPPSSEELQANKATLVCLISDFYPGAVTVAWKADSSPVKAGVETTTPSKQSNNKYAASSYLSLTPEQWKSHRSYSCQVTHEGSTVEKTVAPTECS
heavy 2: QVQLVQSGAEVKKPGASVKVSCQASGYRFSNFVIHWVRQAPGQRFEWMGWINPYNGNKEFSAKFQDRVTFTADTSANTAYMELRSLRSADTAVYYCARVGPYSWDDSPQDNYYMDVWGKGTTVIVSSASTKGPSVFPLAPSSKSTSGGTAALGCLVKDYFPEPVTVSWNSGALTSGVHTFPAVLQSSGLYSLSSVVTVPSSSLGTQTYICNVNHKPSNTKVDKRVEPKSCDKTHTCPPCPAPEFEGGPSVFLFPPKPKDTLMISRTPEVTCVVVAVSHEDPEVKFNWYVDGVEVHNAKTKPREEQYNSTYRVVSVLTVLHQDWLNGKEYKCKVSNKALPAPIEKTISKAKGQPREPQVYTLPPSREEMTKNQVSLTCLVKGFYPSDIAVEWESNGQPENNYKTTPPVLDSDGSFFLYSRLTVDKSRWQQGNVFSCSVMHEALHNHYTQKSLSLSPGK
VL: EIVLTQSPGTLSLSPGERATFSCRSSHSIRSRRVAWYQHKPGQAPRLVIHGVSNRASGISDRFSGSGSGTDFTLTITRVEPEDFALYYCQVYGASSYTFGQGTKLERK
notes: Control bispecific; also called bsIgG1-huCD3-H1010G-FEAL×b12-FEAR
B4: IgG1-ROR2-A-HC4LC3-FEAR (antibody)
heavy: EVQLLESGGGLVQPGGSLRLSCTVSGFSLSSYSMSWVRQAPGKGLEWIGVIYVNSKTWYANWAKGRFTISKDNSKNTVYLQMNSLRAEDTATYYCARGDAGYTTNSWLWGQGTLVTVSSASTKGPSVFPLAPSSKSTSGGTAALGCLVKDYFPEPVTVSWNSGALTSGVHTFPAVLQSSGLYSLSSVVTVPSSSLGTQTYICNVNHKPSNTKVDKRVEPKSCDKTHTCPPCPAPEFEGGPSVFLFPPKPKDTLMISRTPEVTCVVVAVSHEDPEVKFNWYVDGVEVHNAKTKPREEQYNSTYRVVSVLTVLHQDWLNGKEYKCKVSNKALPAPIEKTISKAKGQPREPQVYTLPPSREEMTKNQVSLTCLVKGFYPSDIAVEWESNGQPENNYKTTPPVLDSDGSFFLYSRLTVDKSRWQQGNVFSCSVMHEALHNHYTQKSLSLSPGK
light: AFELTQSPSSLSASVGDRVTITCQASESIDNYLSWYQQKPGKAPKLLIYQAFKLASGVPSRFRGSGSGTDFTLTISSLQPEDFATYYCQSYSGISTTAFGGGTKVEIKRTVAAPSVFIFPPSDEQLKSGTASVVCLLNNFYPREAKVQWKVDNALQSGNSQESVTEQDSKDSTYSLSSTLTLSKADYEKHKVYACEVTHQGLSSPVTKSFNRGEC
notes: Humanized variant, full-length IgG1 with L234F, L235E, D265A, K409R; also called IgG1-ROR2-HC4LC3
B5: bsIgG1-huCD3-FEAL×ROR2-A-HC4LC3-FEAR (bispecific antibody)
heavy 1: not shown
light 1: not shown
heavy 2: B4 heavy
light 2: B4 light
B6: bsIgG1-huCD3-H101G-FEAL×ROR2-A-HC4LC3-FEAR (bispecific antibody)
heavy 1: not shown
light 1: not shown
heavy 2: B4 heavy
light 2: B4 light

Experiments:
[1] = target: T2, cynomolgus monkey ROR2 in which threonine at position 322 is replaced by methionine (ROR2mf-T322M) (cynomolgus monkey (Macaca fascicularis), UniProt Q01974 34-943 (human entry)); experiment: flow cytometry on CHO cells expressing ROR2mf-T322M
T2 construct: also called RORmf-T322M

[2] = target: T1, cynomolgus monkey (Macaca fascicularis) …; experiment: flow cytometry on CHO cells expressing cynomolgus monkey ROR2
Protocol: Next, binding of bispecific CD3×ROR2 antibodies and monospecific ROR2 antibodies to CHO cells expressing human or cynomolgus monkey ROR2 was determined, using 5×10⁴ transfected cells/well and an antibody concentration range from 0.01-10 μg/mL.

[3] = target: T3, his-tagged ROR2 extracellular domain (ROR2-ECD, G&P Biosciences, cat. no. FCL0192) (human, UniProt Q01974 34-403); experiment: BLI (Octet), antibody on anti-human IgG Fc sensor, ROR2-ECD 1.56-100 nM as analyte
T3 construct: Bought protein; also called human ROR2-ECD; recombinant human ROR2-ECD; not shown: his tag

[4] = target: T4, human (Homo sapiens) ROR2, full length, on cells (human, UniProt Q01974 34-943); experiment: cell-based or functional assay
[5] = target: T4, human (Homo sapiens) ROR2, full length, …; experiment: flow cytometry on ROR2-expressing tumor cell lines
[6] = target: T4, human (Homo sapiens) ROR2, full length, …; experiment: flow cytometry on CHO cells expressing human ROR2
Protocol: Cells (1×10⁵ cells/well) were incubated in polystyrene 96-well round-bottom plates (Greiner bio-one, cat. no. 650180) with serial dilutions of antibodies (ranging from 0.01 to 10 μg/mL in 3- or 4-fold dilution steps) in 100 μL PBS/0.1% BSA/0.02% azide (FACS buffer) at 4° C. for 30-60 min. Experiments were performed in technical duplicate. After washing twice in FACS buffer, cells were incubated in 50 μL secondary antibody (R-Phycoerythrin [PE]-conjugated goat-anti-human IgG F(ab′)₂; diluted 1:200 in FACS buffer; Jackson ImmunoResearch Laboratories, Inc., West Grove, PA, cat. no. 109-116-098) at 4° C. for 30 min. Cells were washed twice in FACS buffer, re-suspended in 30 μL FACS buffer containing Topro-3 (1:10,000 dilution) and analyzed on an iQue Screener (Intellicyt Corporation, USA). Binding curves were analyzed using non-linear regression (sigmoidal dose-response with variable slope) using GraphPad Prism V7.02 software (GraphPad Software, San Diego, CA, USA).

T3 sequence (Q01974 34-403): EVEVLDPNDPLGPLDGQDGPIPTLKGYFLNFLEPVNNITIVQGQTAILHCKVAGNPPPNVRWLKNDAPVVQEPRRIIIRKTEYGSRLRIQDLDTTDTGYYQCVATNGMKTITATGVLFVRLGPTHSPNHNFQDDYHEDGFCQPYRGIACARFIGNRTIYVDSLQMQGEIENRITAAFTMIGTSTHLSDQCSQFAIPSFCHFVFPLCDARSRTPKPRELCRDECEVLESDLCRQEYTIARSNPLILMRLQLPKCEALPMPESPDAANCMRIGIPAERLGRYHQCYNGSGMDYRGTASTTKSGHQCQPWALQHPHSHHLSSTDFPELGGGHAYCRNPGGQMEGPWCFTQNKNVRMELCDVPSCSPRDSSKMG
T4 sequence (Q01974 34-943 limits assumed): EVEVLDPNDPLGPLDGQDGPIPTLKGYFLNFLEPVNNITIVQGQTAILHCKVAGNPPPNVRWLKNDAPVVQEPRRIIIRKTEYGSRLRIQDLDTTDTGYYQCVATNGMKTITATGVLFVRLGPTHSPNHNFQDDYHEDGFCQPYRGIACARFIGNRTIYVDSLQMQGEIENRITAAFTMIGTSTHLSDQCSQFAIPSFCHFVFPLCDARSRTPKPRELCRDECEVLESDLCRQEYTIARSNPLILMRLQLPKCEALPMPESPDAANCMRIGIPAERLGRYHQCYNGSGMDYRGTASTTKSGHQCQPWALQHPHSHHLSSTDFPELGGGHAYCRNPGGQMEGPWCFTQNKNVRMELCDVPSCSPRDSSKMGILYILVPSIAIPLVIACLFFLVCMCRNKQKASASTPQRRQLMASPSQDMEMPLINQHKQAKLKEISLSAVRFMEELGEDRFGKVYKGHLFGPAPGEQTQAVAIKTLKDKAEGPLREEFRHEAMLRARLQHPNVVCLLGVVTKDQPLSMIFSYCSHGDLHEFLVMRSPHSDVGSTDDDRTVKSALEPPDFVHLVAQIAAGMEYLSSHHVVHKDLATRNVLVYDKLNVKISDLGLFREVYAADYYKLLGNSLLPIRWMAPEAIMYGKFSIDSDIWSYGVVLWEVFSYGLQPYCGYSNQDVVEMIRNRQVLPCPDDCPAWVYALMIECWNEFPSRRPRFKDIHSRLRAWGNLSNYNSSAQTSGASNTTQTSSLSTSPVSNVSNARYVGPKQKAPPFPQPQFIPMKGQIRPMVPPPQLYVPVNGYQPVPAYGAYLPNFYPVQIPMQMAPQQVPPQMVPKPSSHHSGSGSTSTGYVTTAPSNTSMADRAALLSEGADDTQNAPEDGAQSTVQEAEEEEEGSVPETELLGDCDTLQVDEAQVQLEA

| Binder | binding result [1] | binding result [2] | Kd [3] | koff [3] | kon [3] | binding result [6] | further results |
| --- | --- | --- | --- | --- | --- | --- | --- |
| B1 | binds | binds | 1.1 nM | 0.00079 s⁻¹ | 720000 M⁻¹ s⁻¹ | – | – |
| B2 | binds | binds | – | – | – | – | IC50 of T cell mediated cytotoxicity, 786-O cells, human T cells, E:T 8:1 [4]: 3 ng/mL; IC50 of T cell mediated cytotoxicity, Hela cells, human T cells, E:T 8:1 [4]: 2 ng/mL; IC50 of T cell mediated cytotoxicity, LCLC-103H cells, human T cells, E:T 8:1 [4]: 11 ng/mL; IC50 of T cell mediated cytotoxicity, NCI-H23 cells, human T cells, E:T 8:1 [4]: 13 ng/mL; IC50 of T cell mediated cytotoxicity, NCI-H1650 cells, human T cells, E:T 8:1 [4]: 6 ng/mL; IC50 of T cell mediated cytotoxicity, ZR-75-1 cells, human T cells, E:T 8:1 [4]: 3 ng/mL |
| B3 | – | – | – | – | – | – | binding result [5]: no binding (tested: 0.014-30 µg/mL) |
| B4 | – | binds | 1.1 nM | 0.00068 s⁻¹ | 600000 M⁻¹ s⁻¹ | – | – |
| B5 | binds | binds | – | – | – | binds | – |
| B6 | binds | – | – | – | – | binds | – |
